Data as given in PMC8433531 (Proceedings of the National Academy of Sciences of the …, 2021).

B1: Human Lactoferrin: native human lactoferrin (Creative BioMart; LFT-8196H) (protein, UniProt P02788 20-710, looked up)
Lactotransferrin: GRRRSVQWCAVSQPEATKCFQWQRNMRKVRGPPVSCIKRDSPIQCIQAIAENRADAVTLDGGFIYEAGLAPYKLRPVAAEVYGTERQPRTHYYAVAVVKKGGSFQLNELQGLKSCHTGLRRTAGWNVPIGTLRPFLNWTGPPEPIEAAVARFFSASCVPGADKGQFPNLCRLCAGTGENKCAFSSQEPYFSYSGAFKCLRDGAGDVAFIRESTVFEDLSDEAERDEYELLCPDNTRKPVDKFKDCHLARVPSHAVVARSVNGKEDAIWNLLRQAQEKFGKDKSPKFQLFGSPSGQKDLLFKDSAIGFSRVPPRIDSGLYLGSGYFTAIQNLRKSEEEVAARRARVVWCAVGEQELRKCNQWSGLSEGSVTCSSASTTEDCIALVLKGEADAMSLDGGYVYTAGKCGLVPVLAENYKSQQSSDPDPNCVDRPVEGYLAVAVVRRSDTSLTWNSVKGKKSCHTAVDRTAGWNIPMGLLFNQTGSCKFDEYFSQSCAPGSDPRSNLCALCIGDEQGENKCVPNSNERYYGYTGAFRCLAENAGDVAFVKDVTVLQNTDGNNNEAWAKDLKLADFALLCLDGKRKPVTEARSCHLAMAPNHAVVSRMDKVERLKQVLLHQQAKFGRNGSDCPDKFCLFQSETKNLLFNDNTECLARLHGKTTYEKYLGPQYVAGITNLKKCSTSPLLEACEFLRK
B2: Lactoferrin (protein, UniProt P24627 20-708, looked up)
Lactotransferrin: APRKNVRWCTISQPEWFKCRRWQWRMKKLGAPSITCVRRAFALECIRAIAEKKADAVTLDGGMVFEAGRDPYKLRPVAAEIYGTKESPQTHYYAVAVVKKGSNFQLDQLQGRKSCHTGLGRSAGWIIPMGILRPYLSWTESLEPLQGAVAKFFSASCVPCIDRQAYPNLCQLCKGEGENQCACSSREPYFGYSGAFKCLQDGAGDVAFVKETTVFENLPEKADRDQYELLCLNNSRAPVDAFKECHLAQVPSHAVVARSVDGKEDLIWKLLSKAQEKFGKNKSRSFQLFGSPPGQRDLLFKDSALGFLRIPSKVDSALYLGSRYLTTLKNLRETAEEVKARYTRVVWCAVGPEEQKKCQQWSQQSGQNVTCATASTTDDCIVLVLKGEADALNLDGGYIYTAGKCGLVPVLAENRKSSKHSSLDCVLRPTEGYLAVAVVKKANEGLTWNSLKDKKSCHTAVDRTAGWNIPMGLIVNQTGSCAFDEFFSQSCAPGADPKSRLCALCAGDDQGLDKCVPNSKEKYYGYTGAFRCLAEDVGDVAFVKNDTVWENTNGESTADWAKNLNREDFRLLCLDGTRKPVTEAQSCHLAVAPNHAVVSRSDRAAHVKQVLLHQQALFGKNGKNCPDKFCLFKSETKNLLFNDNTECLAKLGGRPTYEEYLGTEYVTAIANLKKCSTSPLLEACAFLTR
modifications: iron-free apo form
B3: hololactoferrin: iron-saturated hololactoferrin (Sigma-Aldrich; L4765) (protein, UniProt P24627 20-708, looked up)
Lactotransferrin: B2 Lactotransferrin
modifications: iron-saturated

Columns and labels:
[1] = tested on: SARS-CoV-2; type: cell-based
[2] = tested on: SARS-CoV-2; type: cell-based; remark: listed apart in the source
[3] = tested on: SARS-CoV-2; test: Hit validation across cell systems; type: cell-based; settings: Huh7, LNCaP, Caco-2, Vero E6, iAEC2
[4] = tested on: SARS-CoV-2; type: cell-based; remark: listed apart in the source
[5] = tested on: SARS-CoV-2; test: microbe, parasite or virus in culture; type: cell-based
[6] = tested on: IFNβ and interferon-stimulated gene transcripts; type: cell-based, human; settings: virus-infected Huh7, MOI 0.2, 48 h, 6250 nM

Row | Molecule | antiviral activity at high MOI [1] | antiviral activity through a range of MOIs [2] | antiviral activity when added after infection [2] | antiviral activity against SARS-CoV-2 in iAECs ([1]; iAEC2) | efficacy across all tested cell systems [3] | viral replication (viral RNA by RT-qPCR) [4] | IC50 [5] [nM] | IFNβ and interferon-stimulated gene transcripts [6] | antiviral activity (iron chelation control) ([2]; Huh7, 6,250 nM)
1 | B1 | retained antiviral activity | – | – | – | – | – | – | – | –
2 | B2 | retained antiviral activity | retained antiviral activity | maintained antiviral activity | dose-responsive antiviral activity | maintained efficacy across all tested cell systems | dose-dependent inhibition of viral replication | 440 | up-regulation | –
3 | B3 | – | – | – | – | – | – | – | – | retained activity
